In patent US20100247589A1 one finds O.D.450 and O.D.450 (normalized) data, which are given here for 61 molecules.

B1: Pell 5 (peptide)
peptide: DLCSMQMMNTGCHY
B2: Pell 3 (peptide)
peptide: DECMEPLNAAHCWR
B3: Pell 6 (peptide)
peptide: DLCSSPSTWGSCIR
B4: Pell 1 (peptide)
peptide: AHPESLGIKYALDGNSDPHA
B5: Pell 10 (peptide)
peptide: NGPDMVQSVGKHKNS
B6: Pell 11 (peptide)
peptide: NGPEVRQIPANFEKL
B7: Pell 8 (peptide)
peptide: EPTHPTMRAQMHQSLRSSSP
B8: Pell 12 (peptide)
peptide: NNTSADNPPETDSKHHLSMS
B9: Pell 7 (peptide)
peptide: DPNESNYENATTVSQPTRHL
B10: Pell 14 (peptide)
peptide: NPTATPHMKDPMHSNAHSSA
B11: Pell 19 (peptide)
peptide: TPCATYPHFSGCRA
B12: Pell 17 (peptide)
peptide: QHCITERLHPPCTK
B13: Pell 16 (peptide)
peptide: NPTDSTHMMHARNHE
B14: Pell 2 (peptide)
peptide: ASVSNYPPIHHLATSNTTVN
B15: Pell 15 (peptide)
peptide: NPTDHIPANSTNSRVSKGNT
B16: Pell 4 (peptide)
peptide: DECMHGSDVEFCTS
B17: Pell 18 (peptide)
peptide: TPCAPASFNPHCSR
B18: Pell 13 (peptide)
peptide: NNTWPEGAGHTMPSTNIRQA
B19: Pell 9 (peptide)
peptide: GNTDTTPPNAVMEPTVQHKW
B20: Pell 20 (peptide)
peptide: WCTDFCTRSTPTSTSRSTTS
B21: DenP26 (peptide)
peptide: DTIHPNKMKSPSSPL
B22: DenP16 (peptide)
peptide: GPQHVLMQDTHQGYAFDN
B23: DenP9 (peptide)
peptide: HKNAIQPVNDATTLDTTM
B24: DenP7 (peptide)
peptide: EFPYYNDNPPNPERHTLR
B25: DenP19 (peptide)
peptide: TYQGVPSWPAVIDDAIRR
B26: DenP1 (peptide)
peptide: NGNNHTDIPNRSSYTGGSFA
B27: DenP29 (peptide)
peptide: QVPDYLSPTHQKKAFLEIPT
B28: DenP10 (peptide)
peptide: AVVPADLNDHANHLS
B29: Control (SEQ ID NO: 95) (peptide)
peptide: IPWWNIRAPLNAGGG
B30: DenP28 (peptide)
peptide: APPTYQTASYPHNLPSKRKM
B31: DenP24 (peptide)
peptide: SNATMYNIQSHSHHQ
B32: DenP32 (peptide)
peptide: HKNENIMQYNVNDRWHITPA
B33: DenP12 (peptide)
peptide: FDGIGLGTATRHQNR
B34: DenP2 (peptide)
peptide: TMTNHVYNSYTEKHSSTHRS
B35: DenP15 (peptide)
peptide: ELDHDSRHYMNGLQRKVT
B36: DenP23 (peptide)
peptide: HDPNHLTHQARTIYRNANHT
B37: DenP22 (peptide)
peptide: IYPNESMSTSNVRGPYHP
B38: DenP25 (peptide)
peptide: ANELSTYAQTNPGSG
B39: DenP5 (peptide)
peptide: YLLPKDQTTAPQVTPIVQHK
B40: DenP13 (peptide)
peptide: QAAQVHMMQHSRPTT
B41: DenP8 (peptide)
peptide: GMPTRYYHNTPPHLTPKF
B42: DenP18 (peptide)
peptide: KAPIANMLQPHSYQYSVA
B43: DenP21 (peptide)
peptide: DHNNRQHAVEVRENKTHTAR
B44: DenP4 (peptide)
peptide: VEPATKNMREARSSTQMRRI
B45: DenP30 (peptide)
peptide: TNDLHANPFTGTYIAPDPTS
B46: DenP11 (peptide)
peptide: DLGTFPNRTLKMAAH
B47: DenP17 (peptide)
peptide: TTGSSSQADTSASMSIVPAH
B48: DenP14 (peptide)
peptide: SEARARTFNDHTTPMPII
B49: DenP20 (peptide)
peptide: VNPNWVETQALHQPPGNT
B50: DenP15-A (peptide)
peptide: SSRPELDHDSRHYMNGLQRKVTK(Biotin)
B51: DenP7-A (peptide)
peptide: SSRPEFPYYNDNPPNPERHTLRK(Biotin)
B52: DenP4-A (peptide)
peptide: SSRPVEPATKNMREARSSTQMRRIK(Biotin)
B53: DenP1-A (peptide)
peptide: SSRPNGNNHTDIPNRSSYTGGSFAK(Biotin)
B54: DenP5-A (peptide)
peptide: SSRPYLLPKDQTTAPQVTPIVQHKK(Biotin)
B55: DenP14-A (peptide)
peptide: SSRPSEARARTFNDHTTPMPIIK(Biotin)
B56: DenP16-A (peptide)
peptide: SSRPGPQHVLMQDTHQGYAFDNK(Biotin)
B57: DenP17-A (peptide)
peptide: SSRPTTGSSSQADTSASMSIVPAHK(Biotin)
B58: DenP2-A (peptide)
peptide: SSRPTMTNHVYNSYTEKHSSTHRSK(Biotin)
B59: DenP13-A (peptide)
peptide: SSRPQAAQVHMMQHSRPTTK(Biotin)
B60: DenP12-A (peptide)
peptide: SSRPFDGIGLGTATRHQNRK(Biotin)
B61: DenP11-A (peptide)
peptide: SSRPDLGTFPNRTLKMAAHK(Biotin)

Where no end group is shown, it is not given here. The star is where a group is joined. Biotin = O=C1N[C@H]2[C@H](CS[C@H]2CCCCC(=O)*)N1

The target in the first assay is tooth pellicle (thin film derived from salivary glycoproteins, formed in a human mouth) (human). The assay is described as follows: phage ELISA on pellicle-coated HAP disks, anti-M13-HRP; no-phage control 0.218. (In an ELISA, binding on a coated surface is turned into a signal by an enzyme label.)
B1 had an O.D.450 of 0.83. Still for that read-out and setting: in the case of B2 it was 0.49.

As for B3, the O.D.450 is 0.735. Still for that read-out and setting: in the case of B4 it was 0.739. As to B5, the O.D.450 is 0.729. Still for that read-out and setting: in the case of B6 it was 0.607; in that of B7, 0.712. Still for that read-out and setting: in the case of B8 it was 0.521.

B9: the O.D.450 was 0.831. Still for that read-out and setting: in the case of B10 it was 0.7; in that of B11, 0.731. On the same count and under the same terms, in the case of B12 it was 0.614. The molecule B13 showed an O.D.450 of 0.578. For the molecule B14, the O.D.450 was 0.75. B15: the O.D.450 was 0.567. Still for that read-out and setting: in the case of B16 it was 0.664; in that of B17, 0.416.

In turn, B18 came in with an O.D.450 of 0.598. Same read-out and setting: in the case of B19 it was 0.755; in that of B20, 0.715.

The next assay shares this target. In words: phage ELISA on pellicle-coated bovine enamel, anti-M13-HRP, normalized to internal control.
In turn, B21 registered an O.D.450 (normalized) of 1.04. Regarding B22, the O.D.450 (normalized) worked out at 2.19. For the molecule B23, the O.D.450 (normalized) is 1.36.

B24 yielded an O.D.450 (normalized) of 1.5. On the same count and under the same terms, in the case of B25 it was 1.05; in that of B26, 1; in that of B27, 0.976. The same measure, in the same setting: in the case of B28 it was 1.62; in that of B29, 1.

In turn, B30 returned an O.D.450 (normalized) of 1.2. With B31, the O.D.450 (normalized) was found to be 0.979. The same measure, in the same setting: in the case of B32 it was 1.44; in that of B33, 2.08. Take B34: the O.D.450 (normalized) was determined as 1.95. B35 gave an O.D.450 (normalized) of 1.11.

Molecule B36 showed an O.D.450 (normalized) of 1.24. Still for that read-out and setting: in the case of B37 it was 1.42; in that of B38, 0.909. Still for that read-out and setting: in the case of B39 it was 1.09; in that of B40, 0.845; in that of B41, 1.18. The same measure, in the same setting: in the case of B42 it was 1.14. For B43, the O.D.450 (normalized) came out at 0.728. The same measure, in the same setting: in the case of B44 it was 1.42. Same read-out and setting: in the case of B45 it was 1.08; in that of B46, 1.66. Same read-out and setting: in the case of B47 it was 0.971; in that of B48, 2.5; in that of B49, 1.3.

A further assay shares this target. The assay is described as follows: ELISA, 20 uM biotinylated peptide on pellicle-coated bovine enamel, streptavidin-HRP, normalized to DenP03; no-peptide control -0.001.
B50 returned an O.D.450 (normalized) of 0.46.

In turn, B51 yielded an O.D.450 (normalized) of 0.356.

Turning to B52, the O.D.450 (normalized) was 0.803.

Molecule B53 yielded an O.D.450 (normalized) of 0.154. For B54, the O.D.450 (normalized) turned out to be 0.462. Same read-out and setting: in the case of B55 it was 0.269; in that of B56, 0.309; in that of B57, 0.143. The same measure, in the same setting: in the case of B58 it was 0.273; in that of B59, 0.699. Same read-out and setting: in the case of B60 it was 0.475; in that of B61, 0.454.
